Literature values, collected in PMC7532970.
pKd: −log10 of the molar value. Like-named read-outs stand apart in the source and are kept apart here. Values belong to the substance of their own block, whether it stands above or below them.

Assays:
CBP KIX (Homo sapiens) [1] = biological target: CBP KIX (Homo sapiens) (UniProt Q92793)
CBP KIX (Homo sapiens) [2] = biological target: CBP KIX (Homo sapiens) (UniProt Q92793); remark: listed apart in the source
CBP KIX (Homo sapiens) [3] = biological target: CBP KIX (Homo sapiens) (UniProt Q92793); remark: listed apart in the source

Sequence of CBP KIX (Homo sapiens) (Q92793 584-669): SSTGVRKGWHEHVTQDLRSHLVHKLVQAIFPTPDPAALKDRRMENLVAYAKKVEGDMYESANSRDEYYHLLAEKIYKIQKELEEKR
Sequence of CREB (P16220 whole entry): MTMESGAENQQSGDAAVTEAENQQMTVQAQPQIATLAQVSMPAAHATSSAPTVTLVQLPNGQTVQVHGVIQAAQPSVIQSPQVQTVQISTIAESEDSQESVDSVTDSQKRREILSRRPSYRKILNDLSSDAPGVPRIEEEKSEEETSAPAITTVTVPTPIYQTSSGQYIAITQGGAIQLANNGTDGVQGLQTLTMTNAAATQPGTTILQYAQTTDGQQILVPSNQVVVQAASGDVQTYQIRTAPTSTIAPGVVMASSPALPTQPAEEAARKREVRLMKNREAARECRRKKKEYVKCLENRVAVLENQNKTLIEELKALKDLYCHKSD
Sequence of c-myb (P10242 whole entry): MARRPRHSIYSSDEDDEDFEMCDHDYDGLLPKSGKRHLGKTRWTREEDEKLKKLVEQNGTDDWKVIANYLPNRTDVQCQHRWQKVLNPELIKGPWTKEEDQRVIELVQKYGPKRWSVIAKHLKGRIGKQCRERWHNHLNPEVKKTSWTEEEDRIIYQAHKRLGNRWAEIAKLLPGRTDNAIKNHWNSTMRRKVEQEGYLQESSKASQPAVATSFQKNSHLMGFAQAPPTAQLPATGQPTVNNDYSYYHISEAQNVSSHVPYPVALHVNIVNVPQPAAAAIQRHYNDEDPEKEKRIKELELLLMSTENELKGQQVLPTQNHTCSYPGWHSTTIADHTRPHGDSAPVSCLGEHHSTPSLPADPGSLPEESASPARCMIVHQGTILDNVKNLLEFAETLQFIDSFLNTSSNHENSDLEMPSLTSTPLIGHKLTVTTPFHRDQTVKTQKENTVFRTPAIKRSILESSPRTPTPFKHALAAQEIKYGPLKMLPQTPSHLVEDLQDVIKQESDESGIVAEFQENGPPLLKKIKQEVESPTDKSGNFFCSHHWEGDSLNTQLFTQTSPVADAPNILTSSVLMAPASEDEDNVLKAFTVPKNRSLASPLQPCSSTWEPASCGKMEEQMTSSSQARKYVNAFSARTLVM

pKd (CBP KIX (Homo sapiens) [1]): 6.15
Substance: CREB (from UniProt P16220)

pKd (CBP KIX (Homo sapiens) [2]): 4.82
Substance: c-myb (from UniProt P10242)

pKd (CBP KIX (Homo sapiens) [3]): < 4.05
Substance: p53 (from UniProt P04637)
